Here are results for 5 molecules from patent US20030135880A1, “Compositions and methods for halogenation reactions” (priority 2002, published 2003).

The target in data set [1] is T1, PrnA (Pseudomonas fluorescens, UniProt P95480). Nature of the data set: Activation of PrnA by electron transferases, 2 h assay (Example 2). In kind it is biochemical. Also noted: made in house; host or cells: Pseudomonas fluorescens BL915deltaORF1-4 with plasmid pPEH14 (prnA). The note with it: 20 microliter PrnA, 50 microliter NADH, 50 microliter electron transferase, room temperature. The protocol: The following components are used in examples 1-4 below: PrnA (described for Example 1 above) at 0.36 mg/ml, Assay Mixture containing HEPES (100 mM), glucose-6-phosphate, disodium salt (50 mM), D-Trp (5 mM), NaCl (5 mM). Aspergillus niger catalase (39 U/ml), bovine erythrocyte superoxide dismutase (15 U/ml), Leuconostoc mesenteroides glucose-6-phosphate dehydrogenase (10 U/ml). NADH-(3 mg/ml) NADPH (3 mg/ml).
Each assay contains the assay mixture, either NADH (for samples containing Fre and the NAD(P)H:FMN reductase) or NADPH (for samples containing FNR or FNR and Fd), PrnA and the indicated electron transferase. Negative control samples are incubated in parallel; these substituted buffer for PrnA. Quantification standards are prepared by diluting 0,1, 2 or 5 microliter of 7-Cl-Trp standard (1 mM) in 100 microliter Assay Mixture, 50 microliter NADH, 20 microliter PrnA and 50 microliter buffer; the tubes were heated to 100 C. prior to addition of PrnA, then heated an additional 2 min. Further processing is in parallel with the enzymatic reactions. All samples are mixed for 2 h at room temperature. Reactions are stopped and samples processed as described above in Example 1, including using the HPLC Analytical method PrnA1 as described in Example 1.

A further data set deals with T2, PrnC (Pseudomonas fluorescens, UniProt P95482).
T2 construct: made in house; host or cells: P. fluorescens (pPEH/prnC/134Δprn), plasmid pPEH-PrnC with tac promoter
T2 sequence (P95482 whole entry, looked up): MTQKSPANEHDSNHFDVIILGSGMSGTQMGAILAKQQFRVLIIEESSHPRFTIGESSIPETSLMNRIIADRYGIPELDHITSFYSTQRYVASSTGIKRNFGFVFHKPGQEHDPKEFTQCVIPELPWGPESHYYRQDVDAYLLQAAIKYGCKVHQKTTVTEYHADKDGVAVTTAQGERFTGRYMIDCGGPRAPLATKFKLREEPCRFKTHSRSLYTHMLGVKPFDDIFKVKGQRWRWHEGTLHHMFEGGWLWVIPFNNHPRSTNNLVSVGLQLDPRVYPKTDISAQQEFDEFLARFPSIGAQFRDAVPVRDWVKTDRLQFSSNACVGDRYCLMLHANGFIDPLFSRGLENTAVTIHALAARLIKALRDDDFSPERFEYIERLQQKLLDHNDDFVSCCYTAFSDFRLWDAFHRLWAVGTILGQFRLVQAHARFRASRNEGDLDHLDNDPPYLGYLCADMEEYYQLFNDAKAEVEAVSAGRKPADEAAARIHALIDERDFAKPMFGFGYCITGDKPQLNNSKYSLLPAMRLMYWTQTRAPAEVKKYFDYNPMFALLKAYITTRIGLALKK
Nature of the data set: In vitro halogenation with PrnC: chlorination of MDA to APRN (Example 3). In kind it is biochemical, P. fluorescens. The following applies: Extract #2 (PrnC depleted of P2) plus 20 microliter electron transferase, NADH, overnight. As to the method:
Fre, ferrodoxin NADP reductase, ferrodoxin and NADPH FMN-reductase are tested for the ability to activate P. fluorescens PrnC that was depleted of endogenous electron transferase (P2) as described below. PrnC catalyzes chlorination of monodechloroaminopyrrolnitrin (MDA) to yield aminopyrrolnitrin (APRN).
The following materials are prepared for use in assays described below. Buffer 100 mM Tris/Cl, 1 mM EDTA. pH 7.5. Monodechloroaminopyrrolnitrin (MDA) 74.2 mM is prepared by culture of Pseudomonas fluorescens expressing PrnA and PrnB as described in (Kirner et al,1998) which is herein incorporated by reference in its entirety. The assay mix comprises FAD (5 μM) and MDA (742 μM) in buffer. NADH is dissolved in buffer at a concentration of 6 mg/ml. or NADPH is dissolved in buffer at a concentration of 6 mg/ml. Extract #1 is a crude extract in buffer containing PrnC and the endogenous electron transferase P2 described above in example 1. […]
The assays described below are run as follows; Extract #2 is mixed with the indicated electron transferase, assay mix and either NADH or NADPH as indicated. The native activity of PrnC prior to removal of the P2 activity is determined by a parallel sample in which extract #1 is mixed with assay mix and NADH. […] Samples are analyzed by PrnC_Iso method described below. The 220 nm absorbance chromatogram is analyzed and integrated. PrnC activity is expressed as 100 times the ratio of the APRN peak area to the sum of the peak areas of APRN and MDA. Assuming equal extinction coefficients at 220 nm the calculated ratio is equivalent to the net % conversion of MDA to APRN by halogenation.
HPLC Analytical method PrnC_Iso The HPLC instrument used is a Waters Alliance HPLC system with photodiode array detector and is equipped with a 4.6×50 mm column packed with C18-Silica, particle size 3 micrometer. […] Absorbance data are collected from 210 to 400 nm with a resolution of 2.4 nm and a sampling rate of 5/s. […]

In data set [2] the target is T1, PrnA. In kind it is biochemical. Details: made in house; host or cells: Pseudomonas fluorescens BL915deltaORF1-4 with plasmid pPEH14 (prnA). The following applies: 20 microliter PrnA, 20 microliter electron transferase, 20.5 hours, room temperature, triplicate.
Experimental: Protein concentration or the preparation is 0.36 mg/ml.
Either a NADH dependent mixture or a NADPH mixture is used as indicated below. An NADH-dependent assay mixture is prepared by adding 12 mg of NADH to 4.5 ml of above described assay mixture. A NADPH-dependent assay mixture is prepared by adding 3 mg NADPH to 1 ml of the above described assay mixture.
The reactions 1-7, described below, are set up in polypropylene tubes in triplicate. After mixing PrnA, the indicated assay mixture and electron transferase, samples are vortexed, then mixed by inversion at room temperature. […] The HPLC analysis is by Method Set PrnA1 (described below), the injection volume is 50 microliter, and data are collected for the first 6 minutes.
Standards are prepared by mixing 5 or 10 microliter 7-Cl-Trp (1 mM) with sufficient 50 mM HEPES, pH 7.5 to bring the final volume to 200 microliter. D-Trp is eluted at ˜2 min and 7-Cl-trp is eluted at 4.3 min, as indicated by the elution of the authentic D-Trp and 7-Cl-Trp. The quantity of 7-Cl-trp is determined by comparison to a standard curve. Reported activities are the net increase in 7-Cl-Trp after addition of the electron transferase.
A Waters Alliance HPLC system with photodiode array detector is used. The Waters Alliance HPLC is equipped with a 4.6×50 mm column packed with C18-Silica, particle size 3 micrometer. A gradient elution method designated here as PrnA1 is used. Flow rates are 1 ml/min throughout and absorbance data are collected from 210 to 400 nm with a resolution of 1.2 nm and a sampling rate of 1/s. The system as pre-equilibrated with an 85:15 mixture of water:methanol. After injection of the sample the column is developed with a 6 min gradient from the starting conditions to a 40:60 water:methanol mixture. Then from 6.0 to 7.0 min the concentration of methanol is increased to 100% in a linear gradient. The column is washed for 1 min with 100% methanol, then re-equilibrated. D-Trp eluted at ˜2 min and 7-Cl-trp eluted at 4.3 min, as indicated by the elution of authentic D-Trp and 7-Cl-Trp.

Read-outs that look alike come from different tables or passages of the source.

T1 sequence (P95480 whole entry): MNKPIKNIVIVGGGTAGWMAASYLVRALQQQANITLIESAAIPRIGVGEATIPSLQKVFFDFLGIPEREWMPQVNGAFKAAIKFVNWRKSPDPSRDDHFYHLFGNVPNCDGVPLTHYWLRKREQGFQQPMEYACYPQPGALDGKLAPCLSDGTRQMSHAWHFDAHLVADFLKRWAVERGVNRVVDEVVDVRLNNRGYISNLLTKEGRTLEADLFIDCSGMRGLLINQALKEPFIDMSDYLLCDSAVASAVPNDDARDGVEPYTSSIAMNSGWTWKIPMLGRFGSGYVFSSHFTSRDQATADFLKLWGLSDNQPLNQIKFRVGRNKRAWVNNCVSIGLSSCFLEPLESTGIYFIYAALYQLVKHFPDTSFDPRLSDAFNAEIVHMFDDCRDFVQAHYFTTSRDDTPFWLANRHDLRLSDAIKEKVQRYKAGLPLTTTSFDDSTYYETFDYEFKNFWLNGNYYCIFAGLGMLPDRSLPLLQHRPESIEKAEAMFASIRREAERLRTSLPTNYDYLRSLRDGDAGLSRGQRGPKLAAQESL

B1: NAD(P)H:FMN reductase: Photobacterium fischeri NAD(P)H:FMN reductase purchased from Roche (protein, listed as Vibrio fischeri)
chain: MPINCKVKSIEPLACNTFRILLHPEQPVAFKAGQYLTVVMGEKDKRPFSIASSPCRHEGEIELHIGAAEHNAYAGEVVESMKSALETGGDILIDAPHGEAWIREDSDRSMLLIAGGTGFSYVRSILDHCISQQIQKPIYLYWGGRDECQLYAKAELESIAQAHSHITFVPVVEKSEGWTGKTGNVLEAVKADFNSLADMDIYIAGRFEMAGAAREQFTTEKQAKKEQLFGDAFAFI
Regarding B1, in the data set with PrnA [1], the “Net 7-Cl-Trp produced” value stood at 0.11 nmol. In addition, the “PrnC activity, conversion of MDA to APRN” value with PrnC was determined as 4.0%.

B2: NADPH-cyt-P450 reductase: Rabbit liver NADPH-cyt-P450 reductase purchased from Sigma Chemical Co. (protein, listed as Oryctolagus cuniculus)
chain: LINMADSHGDTGATMPEAAAQEASVFSMTDVVLFSLIVGLITYWFLFRKKKEEVPEFTKIQAPTSSSVKESSFVEKMKKTGRNIVVFYGSQTGTAEEFANRLSKDAHRYGMRGMAADPEEYDLADLSSLPEINNALAVFCMATYGEGDPTDNAQDFYDWLQETDVDLSGVKYAVFGLGNKTYEHFNAMGKYVDQRLEQLGAQRIFELGMGDDDANLEEDFITWREQFWPAVCEHFGVEATGEESSIRQYELVLHTDIDVAKVYQGEMGRLKSYENQKPPFDAKNPFLATVTTNRKLNQGTERHLMHLELDISDSKIRYESGDHVAVYPANDSALVNQLGEILGADLDVVMSLNNLDEESNKKHPFPCPTSYRTALTYYLDITNPPRTNVLYELAQYAADPAEQEQLRKMASSSGEGKELYLSWVVEARRHILAILQDYPSLRPPIDHLCELLPRLQARYYSIASSSKVHPNSVHICAVAVEYETKAGRLNKGVATSWLRAKEPAGENGGRALVPMFVRKSQFRLPFKATTPVIMVGPGTGVAPFIGFIQERAWLRQQGKEVGETLLYYGCRRAAEDYLYREELAGFQKDGTLSQLNVAFSREQAQKVYVQHLLRRDKEHLWRLIHEGGAHIYVCGDARNMARDVQNTFYDIVAELGAMEHAQAVDYVKKLMTKGRYSLDVWS
With B2, the “net product formation 7-Cl-Trp” value with PrnA [2] (NADPH mixture) worked out at 3.35 ± 0.23 nmol.

B3: cytochrome b5 reductase: Recombinant soluble domain of rat hepatic cytochrome b5 reductase (protein, listed as Rattus norvegicus)
chain: MGAQLSTLSRVVLSPVWFVYSLFMKLFQRSSPAITLENPDIKYPLRLIDKEIISHDTRRFRFALPSPQHILGLPIGQHIYLSTRIDGNLVIRPYTPVSSDDDKGLVDLVVKVYFKDTHPKFPAGGKMSQYLENMNIGDTIEFRGPNGLLVYQGKGKFAIRADKKSNPVVRTVKSVGMIAGGTGITPMLQVIRAVLKDPNDHTVCYLLFANQSEKDILLRPELEELRNEHSSRFKLWYTVDKAPDAWDYSQGFVNEEMIRDHLPPPGEETLILMCGPPPMIQFACLPNLERVGHPKERCFTF
In the case of B3, in the data set with PrnA [2] (NADH mixture), the “net product formation 7-Cl-Trp” value came to 0.31 ± 0.11 nmol.

B4: FNR: Spinach ferredoxin NADP reductase (protein, UniProt P00455 56-369, looked up)
Ferredoxin--NADP reductase, …: QIASDVEAPPPAPAKVEKHSKKMEEGITVNKFKPKTPYVGRCLLNTKITGDDAPGETWHMVFSHEGEIPYREGQSVGVIPDGEDKNGKPHKLRLYSIASSALGDFGDAKSVSLCVKRLIYTNDAGETIKGVCSNFLCDLKPGAEVKLTGPVGKEMLMPKDPNATIIMLGTGTGIAPFRSFLWKMFFEKHDDYKFNGLAWLFLGVPTSSSLLYKEEFEKMKEKAPDNFRLDFAVSREQTNEKGEKMYIQTRMAQYAVELWEMLKKDNTYFYMCGLKGMEKGIDDIMVSLAAAEGIDWIEYKRQLKKAEQWNVEVY
In the case of B4, the “Net 7-Cl-Trp produced” value with PrnA [1] is given as 4.22 nmol. Also, the “PrnC activity, conversion of MDA to APRN” value with PrnC is listed as 1.8%.

B5: Fre: E. coli flavin reductase (SEQ ID NO: 19), purified electron transferase (protein, listed as Escherichia coli)
chain: MTTLSCKVTSVEAITDTVYRVRIVPDAAFSFRAGQYLMVVMDERDKRPFSMASTPDEKGFIELHIGASEINLYAKAVMDRILKDHQIVVDIPHGEAWLRDDEERPMILIAGGTGFSYARSILLTALARNPNRDITIYWGGREEQHLYDLCELEALSLKHPGLQVVPVVEQPEAGWRGRTGTVLTAVLQDHGTLAEHDIYIAGRFEMAKIARDLFCSERNAREDRLFGDAFAFI
B5: in the data set with PrnA [1], the “Net 7-Cl-Trp produced” value was determined as 8.44 nmol. In addition, the “net product formation 7-Cl-Trp” value with PrnA [2] (NADH mixture) is 21.46 ± 1.02 nmol. For the same molecule, in the data set with PrnC, the “PrnC activity, conversion of MDA to APRN” value stood at 51.8%.
